This is an account of results in a protein production outcome set (Wang et al. 2014).

The nature of the data set: label from the status in PepcDB records.
“MTKYALVGDVGGTNARLALCDIASGEISQAKTYSGLDYPSLEAVIRVYLEEHKVEVKDGCIAIACPITGDWVAMTNHTWAFSIAEMKKNLGFSHLEIINDFTAVSMAIPMLKKEHLIQFGGAEPVEGKPIAVYGAGTGLGVAHLVHVDKRWVSLPGEGGHVDFAPNSEEEAIILEILRAEIGHVSAERVLSGPGLVNLYRAIVKADNRLPENLKPKDITERALADSCTDCRRALSLFCVIMGRFGGNLALNLGTFGGVFIAGGIVPRFLEFFKASGFRAAFEDKGRFKEYVHDIPVYLIVHDNPGLLGSGAHLRQTLGHIL”: the protein production result is listed as “not failed”. To “MQLIGDTPITYRRYSMSSSQNALVLIARILLSFIFIYSGFGKLTDPAGTAGMIAGAGMPAATALAYLAGLFELVAGLAILAGFQTKIAAWALAVFCVFTGLVFHSGTVAVPGWPEPALGWINTLNGIMMMKNITLAGAYILLATFGAGAYSVDAKRGFVAARA” belongs “failed”. The result for “MPSSTTVPTRRGLVSGPSSSDAHGDMPAVSVIMNCLNCERDLAEAIGSVFAQTFDDWEIVFWDNGSTDRSAEIAQGFGERVRYFRATETVPLGAARNLAIAKARGEFIAFLDCDDVWLPEKLERQVALFRANPRVGLVCTDTVMFTGAKDLNRLFEHAHPARGHVFRELMTTQWISMSSAVIRRNALDGMDHWFDESLNVCEEADVFYRIAWDWELDHVDAPLTRWRVHGANTTFRKFGQFAEETLRILDKHRAMYPGYDERYADLVALLRRRAAFQRAVALWREGRGAEARATIAPFDASPKFRLFRLATYLPGALFDPLARLYFALPAFLRRLEHHHHHH” reads “failed”; that for “MYKLVLIRHGESTWNKENRFTGWVDVDLTEQGNREARQAGQLLKEAGYTFDIAYTSVLKRAIRTLWHVQDQMDLMYVPVVHSWRLNERHYGALSGLNKAETAAKYGDEQVLVWRRSYDTPPPALEPGDERAPYADPRYAKVPREQLPLTECLKDTVARVLPLWNESIAPAVKAGKQVLIAAHGNSLRALIKYLDGISDADIVGLNIPNGVPLVYELDESLTPIRHYYLGDQEAIAKAQAAVAQQGKSAA”, “not failed”; that for “MTKMLKLFDAHFHIIDYRFPLITNQSYLPPEFTVEDYLQRAKPLNICGGAVVSGSFQAFDQSYLLAALSILGSDFVGVTQLPATVSDEEIIQLNQKGIRAVRFNVKRGGSENIHRLKYFAHRIYEMVRWHVEIYVDSKDLGDLTSLLLELPAVSIDHLGLSHSGFSQLLHLVEHGIKIKASGFGRVDFDVKKALQTIAQINPDALLFGTDLPSTRAPRPFLDSDIQIIQDLFDEKLTEKILYRNARNFYSKNSSELEHHHHHH”, “not failed”.

For the sequence “MTTGPALSSSEEGLMSEMPPAWCHTARADHSTPGTSPEMIPDTQGHWMPLRSRGLGALPGAFQAPQPLLSRLRHRLAPPRIVGTVSCRRLRTIVALGAARDSCTVGTQGRPGNSDLPAFPTSQVVRGKMGPGSQRTLVLLLLLLASPGARAFQSCLNKQQLLTTVRQLQQLLKGQETRFTEGIRNMKSRLTALQNTVSKMTPDAPPVSCPALDAPPNGKKFGSKYLVDHEVHFTCNPGFQLVGPSSVVCLANGTWTGEQPRCRDTSECSSQPCHNGGTCVEGVHHYRCICPPGKTGNRCQHQTQAAAPGGVAGDSAYSRAPRCAQVEREQHCSCEAGFHLSGTAGGHSVCQDVNECEIYGQEGRPRLCMHACVNTPGSYRCTCPSGYRILADGKSCEDVDECAGPQHMCPRGTTCINTGGGFQCVNPECPEGSGNISYVKTSPFQCERNPCPMDSRPCRHLPKTISFHYLSLPSNLKTPITLFRMATASVPGHPGPNSLRFGIVGGNSRGHFVMQRSDRQTGELILIQTLEGPQTLEVEVDMSEYLERSFQASHVSKVTIFVSRYDF”, the protein production entry is listed as “failed”. To “MKLIRVTLFLCALAILLLVTPTSSLQLKHPYSSPSQGLSKKIVTKMATRKLMIISSEYVMTSTSHEGSSEQLRVTSSGKSKDEEKKLSEEEEEKKALAKYLSMDYRTFRRRRPVHNKALPLDP” belongs “failed”; to “METKQDNLIYVWDAYCGWCYGFSESIKGFYKNHTEVPLTVLCGGLFLDNLPMKNFSYIEEGNKRINQLTGAEFGPSYQKLVEEGTFKMNSKDAAIGFSALRSLAPDRLLEFTSAMQKAFYYEGQSLSDPETYRKIAIEHGLDPEQVLERLNAQETIIDVQNDFNKVRQLGVNSYPSLLLQKDNQIIPIGGGVMTPDKIEARFKNLY”, “failed”.
